Blank lines part the entries; values can stand above or below the binder they belong to.
Legend:
[1] = biological target: recombinant soluble human BCMA (rhu BCMA), analyte of the Example 2 Biacore assay (human) (UniProt Q02223); test: SPR (BIAcore 3000), steady state fit, antibody captured, rhu BCMA as analyte
[2] = biological target: human BCMA (huBCMA) on cells (human) (UniProt Q02223); test: FACS, hu BCMA
[3] = biological target: cynomolgus (Macaca fascicularis) BCMA on cells (cynomolgus (Macaca fascicularis)); test: FACS, Cyno BCMA
cynomolgus (Macaca fascicularis) BCMA on cells (cynomolgus (Macaca fascicularis)), sequence (Q02223 other isoform, or with tags, fused parts or gaps): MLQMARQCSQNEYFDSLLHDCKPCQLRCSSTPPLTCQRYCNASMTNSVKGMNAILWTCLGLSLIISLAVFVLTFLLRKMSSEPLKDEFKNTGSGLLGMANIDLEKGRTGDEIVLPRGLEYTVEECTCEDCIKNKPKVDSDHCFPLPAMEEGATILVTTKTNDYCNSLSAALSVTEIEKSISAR

[4] = biological target: cynomolgus (Macaca fascicularis) BCMA on cells (cynomolgus (Macaca fascicularis)); test: CynoBCMA O/N FACS
[5] = biological target: human BCMA (huBCMA) on cells (human) (UniProt Q02223); test: APRIL blocking
[6] = biological target: TACI on transiently transfected cells (human) (UniProt O14836); test: FACS, hu TACI
TACI on transiently transfected cells (human), sequence (O14836 whole entry): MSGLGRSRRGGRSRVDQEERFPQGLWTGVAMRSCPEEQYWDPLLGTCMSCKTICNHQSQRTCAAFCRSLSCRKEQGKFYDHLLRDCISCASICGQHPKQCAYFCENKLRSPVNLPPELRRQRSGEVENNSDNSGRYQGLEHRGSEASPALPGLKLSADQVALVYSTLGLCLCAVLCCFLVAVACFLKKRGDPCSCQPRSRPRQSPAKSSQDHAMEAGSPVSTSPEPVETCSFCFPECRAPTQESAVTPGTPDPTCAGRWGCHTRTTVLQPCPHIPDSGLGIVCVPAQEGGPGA

human BCMA (huBCMA) on cells (human), sequence (Q02223 whole entry N81S): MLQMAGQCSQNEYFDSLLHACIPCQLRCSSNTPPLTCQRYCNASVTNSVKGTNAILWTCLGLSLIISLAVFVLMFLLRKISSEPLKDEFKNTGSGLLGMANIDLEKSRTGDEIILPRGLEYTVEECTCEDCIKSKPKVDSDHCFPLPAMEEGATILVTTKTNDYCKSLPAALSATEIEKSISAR
recombinant soluble human BCMA (rhu BCMA), analyte of the Example 2 Biacore assay (human), sequence (Q02223 1-54 limits assumed): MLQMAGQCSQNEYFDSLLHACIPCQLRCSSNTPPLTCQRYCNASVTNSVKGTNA

Kd [1]: 36.1 nM
B1: 11F12 (antibody, from a related filing, IgG1, V domains shown)
VH: QVQLVESGGGVVQPGRSLRLSCAASGFTFSSYGLHWVRQAPGKGLEWVALISYDGSNKYYADSVKGRFTISRDNSKNTLYLQMNSLRAEDTAVYYCWYSSSWTPLDYWGQGTLVTVSS
VL: DIQMTQSPSSLSASVGDRVTITCRASQGIRNDLGWYQQKPGKAPKRLIYAASSLQSGVPSRFSGSGSGTEFTLTISSLQPEDFATYYCLQYYSYPLTFGGGTKVEIKR

MFI [2]: 132000 MFI
MFI [3]: 238000 MFI
MFI [4]: 109 MFI
% Inhibition n=1 [5]: 68%
% Inhibition n=2 [5]: 88%
Avg. % Inhibition [5]: 78%
MFI [6]: 1890 MFI
B2: 33C7 (antibody, from a related filing, V domains shown)
VH: EVQLLESGGALVQPGGSLRLSCAASGFTFSSYAMNWVRQAPGKGLEWVSAISVGGDTYYADSVKGRFTISRDNSKNTLYLHVNSLSAEDSAVYYCAKDQVTLVRGVWYYYGLDVWGQGTTVTVSS
VL: VIVLIQSPLSLPVTPGEPASISCRSSQSLLHSNGNNYLDWYLQKPGQSPHLLISLGSNRTSGVPDRFSGSGSGTDFTLKISRVEAEDVGFYYCMQALQPPRRFGQGTKLEIKR

From US20150344583A1
